Laboratory results reported in paper PMC10778692.
Where a chain is given by its changes, count along the chain named. Numbers in names are those of the source.

T1: L-Malate dehydrogenase (UniProt P00346)
T1 sequence: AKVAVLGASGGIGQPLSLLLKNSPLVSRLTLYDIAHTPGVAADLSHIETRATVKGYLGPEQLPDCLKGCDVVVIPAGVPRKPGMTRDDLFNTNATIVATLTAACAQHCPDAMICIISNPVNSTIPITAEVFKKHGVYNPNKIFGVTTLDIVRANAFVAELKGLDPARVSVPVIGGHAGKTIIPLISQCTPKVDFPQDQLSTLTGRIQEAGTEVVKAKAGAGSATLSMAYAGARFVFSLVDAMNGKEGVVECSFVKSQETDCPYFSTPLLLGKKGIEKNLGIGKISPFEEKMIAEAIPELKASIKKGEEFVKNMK

B1: HspB5 F113Y (natural protein)
chain: MDIAIHHPWIRRPFFPFHSPSRLFDQFFGEHLLESDLFPTSTSLSPFYLRPPSFLRAPSWFDTGLSEMRLEKDRFSVNLDVKHFSPEELKVKVLGDVIEVHGKHEERQDEHGYISREFHRKYRIPADVDPLTITSSLSSDGVLTVNGPRKQVSGPERTIPITREEKPAVTAAPKK
B2: HspB5 R116C (natural protein)
chain: B1 chain with Y113F, R116C

Assays:
[1] = target: insulin
[2] = target: T1, L-Malate dehydrogenase

Binder | DTT-induced aggregation of insulin with F113Y (5:1 substrate to sHsp), reduction in the peak level of light scattering at 340 nm [1] [%] | heat-induced (55 °C) aggregation of MDH with R116C, reduction of light scatter at 340 nm against substrate alone [2] [%]
B1 | > 50 | –
B2 | – | 16
